# Substitutions are numbered along the chain they refer to. In names and notes the source's numbering stands.
# T1: Human CD3eg linker (human)
# T1 construct: Single chain: epsilon and gamma subunits of human CD3 joined by a 29-mer linker, Flag-tag at the C-terminus; also called recombinant human CD3
# T1 chain: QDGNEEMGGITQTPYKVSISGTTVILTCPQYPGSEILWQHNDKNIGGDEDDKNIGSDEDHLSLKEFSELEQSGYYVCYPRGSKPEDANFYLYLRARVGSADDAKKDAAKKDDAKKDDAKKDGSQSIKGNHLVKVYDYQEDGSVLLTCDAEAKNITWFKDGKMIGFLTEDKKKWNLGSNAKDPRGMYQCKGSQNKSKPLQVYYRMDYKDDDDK
# B1: H183/L072 VH V95M (antibody, name in Kabat numbering, V domains shown)
# VH: QVQLVESGGGLVQPGRSLRLSCAASGFTFSNAWMHWVRQAPGKGLEWVAQIKDKGNAYAAYYAPSVKGRFTISRDDSKNSIYLQMNSLKTEDTAVYYCHYMHYASASTVLPAFGVDAWGQGTTVTVSS
# VL: DIVMTQSPLSLPVTPGEPASISCQASQELVHMNRNTYLHWYQQKPGQAPRLLIYKVSNRFPGVPDRFSGSGSGTDFTLKISRVEAEDVGVYYCAQGTSVPFTFGQGTKLEIK
# B2: H183/L072 VH W33F (antibody, name in Kabat numbering, V domains shown)
# VH: B1 VH with W33F, M101V
# VL: B1 VL
# B3: H183/L072 VH V100iM (antibody, name in Kabat numbering, V domains shown)
# VH: B1 VH with M101V, V115M
# VL: B1 VL
# B4: H183/L072 VH V100cM (antibody, name in Kabat numbering, V domains shown)
# VH: B1 VH with M101V, V109M
# VL: B1 VL
# B5: H183/L072 VH V100cL (antibody, name in Kabat numbering, V domains shown)
# VH: B1 VH with M101V, V109L
# VL: B1 VL
# B6: H183/L072 VH V95P (antibody, name in Kabat numbering, V domains shown)
# VH: B1 VH with M101P
# VL: B1 VL
# B7: H183/L072 VH W33G (antibody, name in Kabat numbering, V domains shown)
# VH: B1 VH with W33G, M101V
# VL: B1 VL
# B8: H183/L072 VH W33H (antibody, name in Kabat numbering, V domains shown)
# VH: B1 VH with W33H, M101V
# VL: B1 VL
# B9: H183/L072 VH V100cP (antibody, name in Kabat numbering, V domains shown)
# VH: B1 VH with M101V, V109P
# VL: B1 VL
# B10: H183/L072 VH W33D (antibody, name in Kabat numbering, V domains shown)
# VH: B1 VH with W33D, M101V
# VL: B1 VL
# B11: H183/L072 VH W33E (antibody, name in Kabat numbering, V domains shown)
# VH: B1 VH with W33E, M101V
# VL: B1 VL
# B12: H183/L072 VH V100iL (antibody, name in Kabat numbering, V domains shown)
# VH: B1 VH with M101V, V115L
# VL: B1 VL
# B13: H183/L072 VH V100iA (antibody, name in Kabat numbering, V domains shown)
# VH: B1 VH with M101V, V115A
# VL: B1 VL
# B14: H183/L072 VH W33A (antibody, name in Kabat numbering, V domains shown)
# VH: B1 VH with W33A, M101V
# VL: B1 VL
# B15: H183/L072 VH V100iP (antibody, name in Kabat numbering, V domains shown)
# VH: B1 VH with M101V, V115P
# VL: B1 VL
# B16: H183/L072 VH V100iI (antibody, name in Kabat numbering, V domains shown)
# VH: B1 VH with M101V, V115I
# VL: B1 VL
# B17: H183/L072 VH V100cI (antibody, name in Kabat numbering, V domains shown)
# VH: B1 VH with M101V, V109I
# VL: B1 VL
# B18: H183/L072 VH V100cA (antibody, name in Kabat numbering, V domains shown)
# VH: B1 VH with M101V, V109A
# VL: B1 VL
# Molecular target: T1, Human CD3eg linker
# Assay: Biacore SPR, vs template H183/L072
row,fold change of affinity [fold],Binder
1,0.3,B1
2,0.4,B2
3,5.6,B3
4,1.2,B4
5,1.2,B5
6,0,B6
7,0,B7
8,0,B8
9,1,B9
10,0,B10
11,0,B11
12,1.8,B12
13,4.6,B13
14,0,B14
15,1.2,B15
16,0.8,B16
17,1,B17
18,1.1,B18

# Source: patent US20210388087A1 (Chugai, published 2021)
